# Measured values taken from patent US8969060B2, “Modified glucose dehydrogenase” (Ikeda Food Research Co., Ltd., priority 2011, dated 2015).
# Residue numbers refer to the chain shown, from its start. In names and notes the source's numbering stands.
# B1: A298V: modified GLD: SEQ ID NO: 1 with substitution A298V (protein, listed as Aspergillus terreus)
# chain: MLGKLSFLSALSLAVAAPLSNSTSAKYDYIVIGGGTSGLAVANRLSEDPNVNVLILEAGGSVWNNPNVTNVDGYGLAFGSDIDWQYQSVNQPYGGNLSQVLRAGKALGGTSTINGMAYTRAEDVQIDAWETIGNTGWTWKNLFPYYRKSENFTVPTKSQTSLGASYEAGAHGHEGPLDVAFTQIESNNLTTYLNRTFQGMGLPWTEDVNGGKMRGFNLYPSTVNLEEYVREDAARAYYWPYKSRPNLHVLLNTFANRIVWDGEAHDGHITASGVEITSRNGTVRVINAEKEVIVSAGVLKSPAILELSGIGNPSVLDKHNIPVKVNLPTVGENLQDQVNSHMDASGNTSISGTKAVSYPDVYDVFGDEAESVAKQIRANLKQYAADTAKANGNIMKAADLERLFEVQYDLIFKGRVPIAEVLNYPGSATSVFAEFWALLPFARGSVHIGSSNPAEFPVINPNYFMLDWDAKSYVAVAKYIRRSFESYPLSSIVKESTPGYDVIPRNASEQSWKEWVFDKNYRSNFHPVGTAAMMPREIGGVVDERLNVYGTTNVRVVDASVLPFQVCGHLVSTLYAVAERAADLIKADAGRR
# modifications: SIGNAL (1)..(19)
# B2: G352Y: modified GLD: SEQ ID NO: 1 with substitution G352Y (protein, listed as Aspergillus terreus)
# chain: B1 chain with V298A, G352Y
# modifications: SIGNAL (1)..(19)
# B3: K354C: modified GLD: SEQ ID NO: 1 with substitution K354C (protein, listed as Aspergillus terreus)
# chain: B1 chain with V298A, K354C
# modifications: SIGNAL (1)..(19)
# B4: G352R: modified GLD: SEQ ID NO: 1 with substitution G352R (protein, listed as Aspergillus terreus)
# chain: B1 chain with V298A, G352R
# modifications: SIGNAL (1)..(19)
# B5: K354A: modified GLD: SEQ ID NO: 1 with substitution K354A (protein, listed as Aspergillus terreus)
# chain: B1 chain with V298A, K354A
# modifications: SIGNAL (1)..(19)
# B6: G352L: modified GLD: SEQ ID NO: 1 with substitution G352L (protein, listed as Aspergillus terreus)
# chain: B1 chain with V298A, G352L
# modifications: SIGNAL (1)..(19)
# B7: G352V: modified GLD: SEQ ID NO: 1 with substitution G352V (protein, listed as Aspergillus terreus)
# chain: B1 chain with V298A, G352V
# modifications: SIGNAL (1)..(19)
# B8: V338M: modified GLD: SEQ ID NO: 1 with substitution V338M (protein, listed as Aspergillus terreus)
# chain: B1 chain with V298A, V338M
# modifications: SIGNAL (1)..(19)
# B9: G352F: modified GLD: SEQ ID NO: 1 with substitution G352F (protein, listed as Aspergillus terreus)
# chain: B1 chain with V298A, G352F
# modifications: SIGNAL (1)..(19)
# B10: G352P: modified GLD: SEQ ID NO: 1 with substitution G352P (protein, listed as Aspergillus terreus)
# chain: B1 chain with V298A, G352P
# modifications: SIGNAL (1)..(19)
# B11: G352I: modified GLD: SEQ ID NO: 1 with substitution G352I (protein, listed as Aspergillus terreus)
# chain: B1 chain with V298A, G352I
# modifications: SIGNAL (1)..(19)
# B12: G352W: modified GLD: SEQ ID NO: 1 with substitution G352W (protein, listed as Aspergillus terreus)
# chain: B1 chain with V298A, G352W
# modifications: SIGNAL (1)..(19)
# B13: G352M: modified GLD: SEQ ID NO: 1 with substitution G352M (protein, listed as Aspergillus terreus)
# chain: B1 chain with V298A, G352M
# modifications: SIGNAL (1)..(19)
# B14: G352S: modified GLD: SEQ ID NO: 1 with substitution G352S (protein, listed as Aspergillus terreus)
# chain: B1 chain with V298A, G352S
# modifications: SIGNAL (1)..(19)
# B15: G352N: modified GLD: SEQ ID NO: 1 with substitution G352N (protein, listed as Aspergillus terreus)
# chain: B1 chain with V298A, G352N
# modifications: SIGNAL (1)..(19)
# B16: G352K: modified GLD: SEQ ID NO: 1 with substitution G352K (protein, listed as Aspergillus terreus)
# chain: B1 chain with V298A, G352K
# modifications: SIGNAL (1)..(19)
# B17: G352T: modified GLD: SEQ ID NO: 1 with substitution G352T (protein, listed as Aspergillus terreus)
# chain: B1 chain with V298A, G352T
# modifications: SIGNAL (1)..(19)
# B18: K354D: modified GLD: SEQ ID NO: 1 with substitution K354D (protein, listed as Aspergillus terreus)
# chain: B1 chain with V298A, K354D
# modifications: SIGNAL (1)..(19)
# B19: G352Q: modified GLD: SEQ ID NO: 1 with substitution G352Q (protein, listed as Aspergillus terreus)
# chain: B1 chain with V298A, G352Q
# modifications: SIGNAL (1)..(19)
# Assay: Relative enzymatic activity of GLD (DCIP/1-m-PMS, plate reader, yeast culture supernatant) with proflavin hydrochloride present
# Type: biochemical
# Details: site-specific mutants, inhibitor final concentration 1 mM
# Method: The susceptibility defined in the present specification is evaluated in terms of a relative activity that is determined in a system wherein the inhibitor coexists or not. The relative activity is derived from a relative value (%) of an enzymatic activity (a sample value) obtained with the addition of the inhibitor in the determination of the enzymatic activity described in the present specification as compared with an enzymatic activity (a blank value) as “100%” obtained without the addition of the inhibitor in the same determination. Thus, the higher the relative activity is, the less the susceptibility to the inhibitor is (or the more the susceptibility to the inhibitor is reduced), vice versa.
# The enzymatic activity is determined in the following manner in Examples 3 and 6 wherein a plate reader (Japan Molecular Device Corporation, SpectraMax Plus384) is used. Thus, culture supernatant that had been diluted in advance with an appropriate magnification is added to a 96-well microplate with an amount of 100 μl per well. A reagent for the determination of the enzymatic activity comprising phosphate buffer (pH 7.0), 1.0 M D-glucose, 3 mM DCIP, 3 mM 1-m-PMS and methanol with a volume ratio of 0.1:1:0.14:0.2:0.06 is added to the 96-well microplate with an amount of 100 μl per well, and a change in the absorbance of DCIP at 600 nm (ΔABS/min) is then determined. The enzymatic activity can be calculated by conversion in proportion to a change in the absorbance of an enzyme solution for which the enzymatic activity has already been known by the above-mentioned activity determination procedure using the spectrophotometer.
# In the following examples, a value of the enzymatic activity determined by the spectrometer or plate reader using the above reagent composition is considered as a blank value. On the other hand, a sample value is determined using a methanol solution comprising the inhibitor such as 1,10-phenanthroline or proflavin hydrochloride at a final concentration of 1 mM instead of the methanol. Enzymatic activity (unit/mL)=(−ΔABS/16.3)×3.0/0.05×(Dilution ratio of enzyme) [Equation 1]
row,Molecule,Relative Activity [%] Proflavin hydrochloride [%]
1,B1,51.2
2,B2,52.8
3,B3,14.4
4,B4,68.1
5,B5,8.9
6,B6,43.7
7,B7,41.6
8,B8,55.0
9,B9,56.9
10,B10,49.1
11,B11,60.9
12,B12,48.1
13,B13,45.7
14,B14,38.7
15,B15,55.8
16,B16,32.7
17,B17,44.1
18,B18,11.6
19,B19,56.4

# Assay: Relative enzymatic activity of GLD (DCIP/1-m-PMS, plate reader, yeast culture supernatant) with 1,10-phenanthroline present
# Type: biochemical
# Details: site-specific mutants, inhibitor final concentration 1 mM
# Summary of the method: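 Inhibitor at 1 mM final substitutes for the methanol in the reagent, and the sample rate is expressed as % of the inhibitor-free blank. Rates come from ΔA600/min of DCIP with glucose and 1-m-PMS at pH 7.0, using supernatants of YPD-grown yeast clones (24 h, 30° C.).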
row,Molecule,"Relative Activity [%] 1,10-Phenanthroline [%]"
1,B1,62.2
2,B2,92.4
3,B3,62.6
4,B4,80.3
5,B5,66.2
6,B6,80.7
7,B7,87.0
8,B8,73.6
9,B9,83.8
10,B10,89.8
11,B11,85.5
12,B12,81.2
13,B13,74.7
14,B14,62.9
15,B15,80.5
16,B16,82.5
17,B17,85.4
18,B18,70.8
19,B19,90.4
